Test [1] has as its target T1, cynomolgus galectin-10-His, YRT isoform (cynomolgus).
T1 construct: also called cynoGal10-YRT; not shown: His tag
T1 chain: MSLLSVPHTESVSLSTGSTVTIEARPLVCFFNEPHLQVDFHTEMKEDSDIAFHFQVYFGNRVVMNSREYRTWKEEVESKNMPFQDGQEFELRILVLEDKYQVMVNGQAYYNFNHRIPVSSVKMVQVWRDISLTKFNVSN
Briefly: ELISA, coated antigen 0.2 ug/mL. As for the experimental part: (§1) In a similar setup to that used during the initial screening, the relative binding properties of the 11 new scFv-human Fc clones were analyzed by ELISA. Briefly, a Maxisorp plate was coated overnight with human or cynomolgus WGS or YRT isoforms of galectin-10-His at 0.2 μg/mL and blocked with PBS 1% casein, before being incubated with a serial dilution of the scFv-human Fc fusion molecules (from 100 nM, dilution 1/5, 8 points of dilutions). After several washing steps, detection of the bound scFv-human Fc was carried out with an anti-human Fc-HRP antibody (Jackson ImmunoResearch, Catalog 109-035-008). Absorbance was measured at 450 nm (reference at 620 nm) with Tecan instrument. Finally, the raw data (OD values) were plotted on GraphPad Prism 7.01. The EC50 values of each clone, calculated with a non-linear regression (log(agonist) vs. response Variable slope (four parameters)) are reported in Table 19 below. As a positive control, clone 6F05 from the previous galectin-10 antibody panel was included.
A general note: An ELISA detects its analyte on a solid surface through an enzyme-linked reagent.

Test [2] deals with T2, human galectin-10-His (human).
T2 construct: The last M of the tag may be Met1 of galectin-10; also called humanGal10-His; hGal10
T2 chain: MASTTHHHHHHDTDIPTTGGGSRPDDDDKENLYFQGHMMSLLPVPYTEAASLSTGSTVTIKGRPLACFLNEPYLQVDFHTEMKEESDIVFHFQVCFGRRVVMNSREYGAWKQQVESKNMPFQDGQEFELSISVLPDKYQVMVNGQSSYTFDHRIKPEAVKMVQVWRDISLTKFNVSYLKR
The test is described as follows: ELISA, coated antigen 0.2 ug/mL. The protocol:
as §1

In test [3] the target is T1, cynomolgus galectin-10-His, YRT isoform. Briefly: binding ELISA (summary table). The protocol:
as §1

In test [4] the target is T2, human galectin-10-His. The test is described as follows: binding ELISA (summary table). As for the experimental part: as §1
The target in test [5] is T2, human galectin-10-His. Briefly: SPR Biacore (summary table). As for the experimental part:
(§2) The binding properties of the scFv-human Fc panel to galectin-10 were analyzed on the Biacore T3000. For this purpose, a CM5 Chip was coated with polyclonal anti-human Fc at 8000 RU, then a fixed concentration of the scFv-human Fc panel (1.5 μg/mL) were captured to reach a binding signal around 150 RU. Finally, a serial dilution of human or cynomolgus WGS isoform of galectin-10-His (serial dilution, 1 over 2 from 5 μg/mL, 6 points of dilution) was injected. Raw data were analyzed via BIA evaluation software with a blank subtraction (4-3). Finally, the kd/KD and Rmax of each scFv-human Fc to galectin-10-His was determined using the Fit Kinetics simultaneous ka/kd/Binding with mass transfer/Local Rmax on BIA evaluation software.

Test [6] deals with T2, human galectin-10-His. Briefly: SPR Biacore T3000, scFv-human Fc captured. The protocol: as §2
A general note: In SPR one partner is held on a chip, and binding of the other changes the refractive index at the surface.

For test [7], the target named is T3, cynomolgus galectin-10-His, WGS isoform (cynomolgus).
T3 construct: also called cynoGal10-WGS; not shown: His tag
T3 chain: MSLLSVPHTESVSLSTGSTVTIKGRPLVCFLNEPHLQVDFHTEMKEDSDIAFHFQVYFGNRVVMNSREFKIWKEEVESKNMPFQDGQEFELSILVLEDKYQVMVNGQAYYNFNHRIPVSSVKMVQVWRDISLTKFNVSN
Briefly: ELISA, coated antigen 0.2 ug/mL. As for the experimental part: as §1

The target in test [8] is T3, cynomolgus galectin-10-His, WGS isoform. The test is described as follows: binding ELISA (summary table). As for the experimental part: as §1
Test [9] has the same target. The test is described as follows: SPR Biacore (summary table). As for the experimental part:
as §2

The target is the same in test [10]. The test is described as follows: SPR Biacore T3000, scFv-human Fc captured. The protocol: as §2

B1: 11F12 scFv-human Fc (Fc fusion)
scFv: QVQLQESGGGLVQPGGSLRLSCAASGFTFSTNYMNWVRQAPGKGLEWVSGITSGGGRTYYADSVKGRFTISRDNAKNTLYLQMNSLKPEDTALYYCARTDHAWLDAWGQGTLVTVSSGGGGSGGGGSGGGGSHSAVTQPPSVSGTLGKTVTISCAGTSSDVGYGNYVSWYQHLPGTAPKLLIYAVSTRASGVPDRFSGSKSGNTASLTISGLQSEDEGDYYCASYSVRNNVVFGGGTRLTVL
notes: also called 011F12; not shown: CH2-CH3 constant domains of human IgG1 (pUPEX50 scFv-Fc fusion vector)
Usually EC50 stands for the concentration giving half of the maximal effect. A word on the Kd: it is the free concentration of one partner at which half of the binding sites on the other are occupied at equilibrium, for simple one-to-one binding. For orientation: koff means the first-order rate constant of dissociation. As usually defined, the kon is the second-order rate constant of association. Turning to B1, the Bmax was 3 OD in test [1] and 1.8 OD with human galectin-10-His [2]. Further, the EC50 in test [1] was 0.24 nM; in the test with human galectin-10-His [2], 0.56 nM; in test [3], 0.24 nM; in the test with human galectin-10-His [4], 0.56 nM. In addition, the Kd in the test with human galectin-10-His [5] and in the test with human galectin-10-His [6] was 2.3 nM throughout. Besides, the koff in the test with human galectin-10-His [5] and with human galectin-10-His [6] was 0.00072 s⁻¹ each time. Also, the on-rate (kon) with human galectin-10-His [5] and in the test with human galectin-10-His [6] was 320000 M⁻¹ s⁻¹ each time.

B2: 10D02 scFv-human Fc (Fc fusion)
scFv: EVQLVESGGGLVQPGGSLRVSCAASGFTFSSYYMSWVRQAPGKGLEWVSGIVTGGGRTHYTDSVKGRFTITRDNAKNTLYLQMNSLRPEDTALYYCARVNGVVTNYDYWGQGTQVTVSSGGGGSGGGGSGGGGSQAVLTQPPSVSGSPGKTVTISCAGTSSDVGYGNYVSWYQQLPGMAPKLLIYDVNKRASGITDRFSGSKSGNTASLTISGLQSEDEADYFCASYRSPNNVVFGQGTHLTVL
notes: also called 010D02; not shown: CH2-CH3 constant domains of human IgG1 (pUPEX50 scFv-Fc fusion vector)
On to B2, for which the Bmax turned out to be 3.1 OD in test [7], 2 OD in test [1] and 1.9 OD in the test with human galectin-10-His [2]. Besides, the EC50 in test [7] was determined as 1.12 nM; in [1], 1.4 nM; with human galectin-10-His [2], 0.56 nM; in test [8] it was 1.12 nM; in [3], 1.4 nM; in the test with human galectin-10-His [4] it was 0.56 nM. Also, the Kd in [9] turned out to be 2.7 nM; in the test with human galectin-10-His [5], 2 nM; in test [10], 2.7 nM; with human galectin-10-His [6], 2 nM. For the same molecule, the koff is 0.00122 s⁻¹ in test [9], 0.00066 s⁻¹ with human galectin-10-His [5], 0.00122 s⁻¹ in [10] and 0.00066 s⁻¹ with human galectin-10-His [6]. Moreover, the kon in test [9] was found to be 450000 M⁻¹ s⁻¹; in the test with human galectin-10-His [5], 340000 M⁻¹ s⁻¹; in test [10], 450000 M⁻¹ s⁻¹; with human galectin-10-His [6], 340000 M⁻¹ s⁻¹.

B3: 8H11 scFv-human Fc (Fc fusion)
scFv: ELQLVESGGGLVQPGGSLRLSCAASGFTFSTNYMNWVRQAPGKGLEWVSGITSGGGRTYYADSVKGRFTISRDNAKNTLYLQMNSLKPEDTALYYCARTDHAWLDAWGQGTLVTVSSGGGGSGGGGSGGGGSQAGLTQPPSVSGTLGKTVTISCAGTSSDVGYGNYVSWYQQLPGTAPKLLIYAVSTRASGIPDRFSGSKSGNTASLTISGLLSEDEADYYCASYRSSNNYVFGGGTKLTVL
notes: also called 008H11; not shown: CH2-CH3 constant domains of human IgG1 (pUPEX50 scFv-Fc fusion vector)
Consider B3, for which the figures for the Bmax (in test [7]; in test [1]; with human galectin-10-His [2]) were 3.1 OD, 3.1 OD and 2.3 OD, respectively. The EC50 amounted to 0.13 nM in test [7]; 0.1 nM in [1]; 0.18 nM in the test with human galectin-10-His [2]; 0.13 nM in test [8]; 0.1 nM in [3]; 0.18 nM with human galectin-10-His [4]. Also, the Kd in [9] turned out to be 0.9 nM; with human galectin-10-His [5] it was 1.8 nM; in [10] it was 0.9 nM; with human galectin-10-His [6], 1.8 nM. The off-rate (koff) in [9] amounted to 0.00161 s⁻¹; in the test with human galectin-10-His [5], 0.00082 s⁻¹; in [10], 0.00161 s⁻¹; with human galectin-10-His [6], 0.00082 s⁻¹. The kon in test [9] turned out to be 1.75e+06 M⁻¹ s⁻¹; in the test with human galectin-10-His [5], 453000 M⁻¹ s⁻¹; in test [10], 1.75e+06 M⁻¹ s⁻¹; in the test with human galectin-10-His [6], 453000 M⁻¹ s⁻¹.

B4: 10B02 scFv-human Fc (Fc fusion)
scFv: QVQLVESGGGLVQPGGSLRVSCAASGFTFSYHYMNWVRQAPGKGLEWVSGISAGGGRTYYADSVKGRFTISRDNAKNTLYLQMNSLNAEDTALYYCARVHGITNDYWGQGTQVTVSSGGGGSGGGGSGGGGSQSALTQPPSVSGSPGKTVTISCAGTSSDVGYGNYVSWYQQLPGMAPKLLIYEVNKRASGITDRFSGSKSGNTAFLTISGLQSEDEADYYCASYRNSNNWVFGGGTHLTVL
notes: also called 010B02; not shown: CH2-CH3 constant domains of human IgG1 (pUPEX50 scFv-Fc fusion vector)
In the case of B4, the results for the Bmax (in [7]; in test [1]; with human galectin-10-His [2]) were 3.3 OD, 3.2 OD and 2.2 OD, respectively. Moreover, the EC50 came out at 0.05 nM in test [7]; 0.05 nM in test [1]; 0.09 nM with human galectin-10-His [2]; 0.05 nM in [8]; 0.05 nM in [3]; 0.09 nM in the test with human galectin-10-His [4]. Moreover, the Kd in [9] was found to be 1 nM; with human galectin-10-His [5], 1.6 nM; in test [10], 1 nM; with human galectin-10-His [6], 1.6 nM. Also, the off-rate (koff) in test [9] stood at 0.0008 s⁻¹; in the test with human galectin-10-His [5], 0.00081 s⁻¹; in test [10], 0.0008 s⁻¹; with human galectin-10-His [6], 0.00081 s⁻¹. For the same molecule, the kon is 770000 M⁻¹ s⁻¹ in test [9], 500000 M⁻¹ s⁻¹ with human galectin-10-His [5], 770000 M⁻¹ s⁻¹ in test [10] and 500000 M⁻¹ s⁻¹ in the test with human galectin-10-His [6].

For the origin of these results see patent US20190367619A1 (ARGENX, published 2019).
